# Data: EP4700040A1, “PEPTIDE AND LUMINESCENT COMPLEX CONTAINING SAME” (Shenzhen Loggene Life Science & Technology Co., Ltd., priority 2023, dated 2024)
# Biological target: Large subunit-rSCFV5 fusion protein
# Assay: cell-based or functional assay
# Large subunit-rSCFV5 fusion protein, sequence (chain, as listed by the source): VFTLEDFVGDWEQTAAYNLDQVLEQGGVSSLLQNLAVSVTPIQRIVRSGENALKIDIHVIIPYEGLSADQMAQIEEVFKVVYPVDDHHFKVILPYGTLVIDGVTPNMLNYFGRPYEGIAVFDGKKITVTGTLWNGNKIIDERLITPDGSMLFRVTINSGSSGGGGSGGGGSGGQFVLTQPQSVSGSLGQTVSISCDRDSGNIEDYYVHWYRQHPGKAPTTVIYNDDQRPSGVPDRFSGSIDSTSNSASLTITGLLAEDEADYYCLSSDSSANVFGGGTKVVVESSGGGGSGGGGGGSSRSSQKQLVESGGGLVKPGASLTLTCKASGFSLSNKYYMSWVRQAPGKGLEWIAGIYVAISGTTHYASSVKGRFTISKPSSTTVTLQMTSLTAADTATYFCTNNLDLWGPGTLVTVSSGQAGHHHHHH
Binder,"RLU, PCT+ [RLU]","RLU, PCT- [RLU]",Signal-to-noise ratio,Signal-to-noise ratio at 1000 pg/ml,normalised luminescence at PCT 0.0 pg/ml,normalised luminescence at PCT 1 pg/ml,normalised luminescence at PCT 3 pg/ml,normalised luminescence at PCT 10 pg/ml,normalised luminescence at PCT 30 pg/ml,normalised luminescence at PCT 100 pg/ml
"VEGYRLFEKVS (peptide, part only; not given: rSCFV18 scFv part, part only) [rSCFV18-small subunit mutant fusion protein RC-042]",5770,593,9.7,,,,,,,
"VSGWRIFDRKS (peptide, part only; not given: rSCFV18 scFv part, part only) [rSCFV18-small subunit mutant fusion protein RC-041]",11800,2500,4.7,,,,,,,
"VNGWRIFDKKS (peptide, part only; not given: rSCFV18 scFv part, part only) [rSCFV18-small subunit mutant fusion protein RC-242]",9040,1520,5.9,,,,,,,
"VEGWRLFDRVS (peptide, part only; not given: rSCFV18 scFv part, part only) [rSCFV18-small subunit mutant fusion protein RC-237]",10800,2190,5,,,,,,,
"VEGYRIFEKKW (peptide, part only; not given: rSCFV18 scFv part, part only) [rSCFV18-small subunit mutant fusion protein RC-286]",5000,438,11.4,5.5,5000,4670,4640,4830,5410,6700
"VSGWRIHEKIS (peptide, part only; not given: rSCFV18 scFv part, part only) [rSCFV18-small subunit mutant fusion protein RA120]",81100,2140,36.9,,,,,,,
"VEGYRLFDRKW (peptide, part only; not given: rSCFV18 scFv part, part only) [rSCFV18-small subunit mutant fusion protein RB186]",27200,590,45.1,,,,,,,
"VEGYRLFDKKW (peptide, part only; not given: rSCFV18 scFv part, part only) [rSCFV18-small subunit mutant fusion protein RB239]",31900,465,67.7,31.1,,,,,,
"VSGWRIFDKKS (peptide, part only; not given: rSCFV18 scFv part, part only) [rSCFV18-small subunit mutant fusion protein RC-124]",9280,1230,7.5,,,,,,,
"VSGYRLFDKKW (peptide, part only; not given: rSCFV18 scFv part, part only) [rSCFV18-small subunit mutant fusion protein RC-261]",7220,1620,4.5,,,,,,,
"VEGYRLFNKEW (peptide, part only; not given: rSCFV18 scFv part, part only) [rSCFV18-small subunit mutant fusion protein RB284]",3990,302,12.2,,,,,,,
"VDGWRLHEKIS (peptide, part only; not given: rSCFV18 scFv part, part only) [rSCFV18-small subunit mutant fusion protein RA141]",30600,463,65.1,,,,,,,
"VEGYRLFERKS (peptide, part only; not given: rSCFV18 scFv part, part only) [rSCFV18-small subunit mutant fusion protein RC-145]",8200,808,10.1,,,,,,,
"VEGYRLFEKVW (peptide, part only; not given: rSCFV18 scFv part, part only) [rSCFV18-small subunit mutant fusion protein RB172]",41400,1090,36.9,,,,,,,
"VSGYRLFDRKS (peptide, part only; not given: rSCFV18 scFv part, part only) [rSCFV18-small subunit mutant fusion protein RC-228]",16300,3000,5.4,,,,,,,
"VEGYRLFNRVS (peptide, part only; not given: rSCFV18 scFv part, part only) [rSCFV18-small subunit mutant fusion protein RB027]",102000,4320,22.6,,,,,,,
"VEGYRLFEKKL (peptide, part only; not given: rSCFV18 scFv part, part only) [rSCFV18-small subunit mutant fusion protein RB149]",79100,3590,21,,,,,,,
"VSGYRLFDRKW (peptide, part only; not given: rSCFV18 scFv part, part only) [rSCFV18-small subunit mutant fusion protein RC-033]",8510,820,10.4,,,,,,,
"VDGYRLFEKVS (peptide, part only; not given: rSCFV18 scFv part, part only) [rSCFV18-small subunit mutant fusion protein RC-263]",4770,685,7,5.8,5000,5130,5230,5190,5650,7130
"VEGYRLFDRVW (peptide, part only; not given: rSCFV18 scFv part, part only) [rSCFV18-small subunit mutant fusion protein RB128]",26200,658,38.8,,,,,,,
"VEGWRLFDRKS (peptide, part only; not given: rSCFV18 scFv part, part only) [rSCFV18-small subunit mutant fusion protein RC-232]",18300,3180,5.8,,,,,,,
"VSGYRIFEKKS (peptide, part only; not given: rSCFV18 scFv part, part only) [rSCFV18-small subunit mutant fusion protein RC-129]",12000,2070,5.8,,,,,,,
"VEGYRLFNRVG (peptide, part only; not given: rSCFV18 scFv part, part only) [rSCFV18-small subunit mutant fusion protein RB122]",55400,2600,20.2,,,,,,,
"VEGYRLFNRKW (peptide, part only; not given: rSCFV18 scFv part, part only) [rSCFV18-small subunit mutant fusion protein RB223]",39200,1100,34.7,,,,,,,
"VEGYRLFDRKS (peptide, part only; not given: rSCFV18 scFv part, part only) [rSCFV18-small subunit mutant fusion protein RC-218]",7240,921,7.9,6.3,5000,4940,4980,5160,5700,7490
"VEGYRLHEKIS (peptide, part only; not given: rSCFV18 scFv part, part only) [rSCFV18-small subunit mutant fusion protein RA128]",17900,387,45.2,,,,,,,
"VSGYRIFDKKS (peptide, part only; not given: rSCFV18 scFv part, part only) [rSCFV18-small subunit mutant fusion protein RC-044]",10400,1300,8,,,,,,,
"VEGYRLFERVL (peptide, part only; not given: rSCFV18 scFv part, part only) [rSCFV18-small subunit mutant fusion protein RB150]",53900,1630,32.1,,,,,,,
"VEGYRLFKREL (peptide, part only; not given: rSCFV18 scFv part, part only) [rSCFV18-small subunit mutant fusion protein RB152]",37200,906,40,,,,,,,
"VSGYRIFEKKW (peptide, part only; not given: rSCFV18 scFv part, part only) [rSCFV18-small subunit mutant fusion protein RC-113]",6210,1180,5.3,,,,,,,

# Same assay, conditions: not given
Binder,normalised luminescence at PCT 1000 pg/ml,normalised luminescence at PCT 10000 pg/ml,normalised luminescence at PCT 100000 pg/ml,normalised luminescence at PCT 250000 pg/ml,luminescence at PCT 0 pg/ml,luminescence at PCT 1.37 pg/ml,luminescence at PCT 4.12 pg/ml,luminescence at PCT 12.35 pg/ml,luminescence at PCT 37.04 pg/ml,luminescence at PCT 111.1 pg/ml
"VEGYRIFEKKW (peptide, part only; not given: rSCFV18 scFv part, part only) [rSCFV18-small subunit mutant fusion protein RC-286]",27600,236000,1.44e+06,2.01e+06,,,,,,
"VEGYRLFDKKW (peptide, part only; not given: rSCFV18 scFv part, part only) [rSCFV18-small subunit mutant fusion protein RB239]",,,,,288,301,332,407,590,1320
"VDGYRLFEKVS (peptide, part only; not given: rSCFV18 scFv part, part only) [rSCFV18-small subunit mutant fusion protein RC-263]",28800,241000,1.56e+06,2.23e+06,,,,,,
"VEGYRLFDRKS (peptide, part only; not given: rSCFV18 scFv part, part only) [rSCFV18-small subunit mutant fusion protein RC-218]",31600,266000,1.76e+06,2.44e+06,,,,,,

# Same assay, conditions: not given
Binder,luminescence at PCT 333.3 pg/ml,luminescence at PCT 1000 pg/ml,"complementary activity, luminescence at 3 min [RLU]","complementary activity, luminescence at 6 min [RLU]"
"VEGYRLFDKKW (peptide, part only; not given: rSCFV18 scFv part, part only) [rSCFV18-small subunit mutant fusion protein RB239]",3360,8950,,
"IEGYRLFDRKS (peptide, part only; not given: scFv part; template fusion not stated, part only) [small subunit mutant fusion protein RD-092]",,,4900,4540
"AEPYRIFDRKS (peptide, part only; not given: scFv part; template fusion not stated, part only) [small subunit mutant fusion protein RD-099]",,,221,52
"AEGYRLFDRKS (peptide, part only; not given: scFv part; template fusion not stated, part only) [small subunit mutant fusion protein RD-086]",,,3390,3220

# Biological target: Large subunit-rSCFV5 fusion protein
# Assay: cell-based or functional assay
# Remark: another data set of the same source
Binder,Signal-to-noise ratio at 1000 pg/ml,normalised luminescence at PCT 0 pg/ml,normalised luminescence at PCT 1.1 pg/ml,normalised luminescence at PCT 3.3 pg/ml,normalised luminescence at PCT 10 pg/ml,normalised luminescence at PCT 100 pg/ml,normalised luminescence at PCT 1000 pg/ml,normalised luminescence at PCT 10000 pg/ml,normalised luminescence at PCT 100000 pg/ml
"VSGWRIHEKIS (peptide, part only; not given: rSCFV18 scFv part, part only) [rSCFV18-small subunit mutant fusion protein RA120]",18,5000,4900,5260,5860,13400,90100,695000,2e+06
"VEGYRLFDKKW (peptide, part only; not given: rSCFV18 scFv part, part only) [rSCFV18-small subunit mutant fusion protein RB239]",11.5,5000,5530,5620,5990,11000,57600,466000,2.17e+06
"VEGYRLFNKEW (peptide, part only; not given: rSCFV18 scFv part, part only) [rSCFV18-small subunit mutant fusion protein RB284]",4.9,5000,5090,5290,5530,7040,24700,188000,862000
"VDGWRLHEKIS (peptide, part only; not given: rSCFV18 scFv part, part only) [rSCFV18-small subunit mutant fusion protein RA141]",8.6,5000,4930,5410,6020,8680,42800,333000,1.4e+06
